Test results taken from patent US20190016812A1 (AbbVie / Abbott, published 2019).
Read-outs that look alike come from different tables or passages of the source.

Legend:
[1] = target: T1, hTNFSF9-His (monomeric human TNFSF9 extracellular domain with 9x-Histidine tag) (human, UniProt P41273 50-254); assay: SPR (Biacore)
T1 construct: also called hTNFSF9-His protein; monomeric hTNFSF9-His antigen

[2] = target: T2, cynomolgus TNFSF9 (cTNFSF9) protein, soluble recombinant (cynomolgus); assay: SPR (Biacore)
T2 construct: extracellular domain; also called cynomolgus TNFSF9 protein

[3] = target: T3, human TNFSF9 (hTNFSF9), full length, overexpressed on HEK293T cells (human, UniProt P41273 1-254); assay: cell-based or functional assay
[4] = target: T4, cynomolgus TNFSF9 (cTNFSF9), full length, overexpressed on HEK293T cells (cynomolgus); assay: cell-based or functional assay
[5] = target: T5, human TNFSF9 (R&D Systems; #2295-4L-025/CF) (human, UniProt P41273 71-254, limits assumed); assay: MSD ELISA: TNFSF9 + 1 ug/mL antibody, binding to coated TNFRSF9
T5 construct: also called TNFSF9 (ligand); TNFSF9 ligand
T5 sequence (P41273 71-254 limits assumed): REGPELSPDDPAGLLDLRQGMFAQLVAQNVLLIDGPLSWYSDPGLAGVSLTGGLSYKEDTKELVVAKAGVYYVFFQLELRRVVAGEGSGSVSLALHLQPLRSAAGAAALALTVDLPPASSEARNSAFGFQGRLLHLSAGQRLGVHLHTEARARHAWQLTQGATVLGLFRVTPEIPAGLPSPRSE

[6] = target: T1, hTNFSF9-His (monomeric human TNFSF9 …); assay: SPR (Biacore); remark: listed apart in the source
[7] = target: T2, cynomolgus TNFSF9 (cTNFSF9) protein, …; assay: SPR (Biacore); remark: listed apart in the source
[8] = target: T3, human TNFSF9 (hTNFSF9), full length, …; assay: cell-based or functional assay; remark: listed apart in the source
[9] = target: T4, cynomolgus TNFSF9 (cTNFSF9), full …; assay: cell-based or functional assay; remark: listed apart in the source
[10] = target: T5, human TNFSF9 (R&D Systems; …); assay: MSD ELISA: TNFSF9 + 1 ug/mL antibody, binding to coated TNFRSF9; remark: listed apart in the source

T1 sequence (P41273 other isoform, or with tags, fused parts or gaps): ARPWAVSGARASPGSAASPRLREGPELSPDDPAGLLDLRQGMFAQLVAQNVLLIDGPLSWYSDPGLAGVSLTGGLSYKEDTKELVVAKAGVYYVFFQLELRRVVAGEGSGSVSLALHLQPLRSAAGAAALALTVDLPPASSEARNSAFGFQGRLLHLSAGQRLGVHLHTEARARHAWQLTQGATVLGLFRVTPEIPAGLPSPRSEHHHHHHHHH

B1: SC113.36 (antibody, mouse IgG1, V domains shown)
VH: QVQLKESGPDLVAPSQSLSITCTVSGFSLTSYGVHWVRQPPGKGLEWLGVIWAGGFTNYNSALMSRLSISKDNSKSQVFLKMSSLQTDDTAMYYCVREKDYRYSHYFDYWGQGTTLTVSS
VL: DIVMSQSPSSLAVSVGEKVTLSCKSSLSLLYSSNQENYLAWYQQKPGQSPKLLIYWASTRESGVPDRFTGSGSGTDFTLTISSVKAEDLAVYYCQQYYSYPRTFGGGTKLEIK
notes: mouse IgG1
Kd [1]: 3 nM
Kd [2]: 12 nM
% live cells, Fab-saporin killing, 250 pM antibody [3]: 17.8%
% live cells, Fab-saporin killing, 250 pM antibody [4]: 102%
% inhibition of ligand receptor interaction [5]: 23%

B2: SC113.51 (antibody, mouse IgG2a, V domains shown)
VH: QVQLKESGPDLVAPSQSLSIICTVSGFSLTSYGVHWVRQSPGKGLEWLGVIWAGGLTNYNSALMSRLSISKDNSKSQVFLKMNSLQTDDTAMYYCVREKDYRYSYYFDYWGQGTTLTVSS
VL: DIVMSQSPSSLAVSVGEKVTLSCKSSLSLLYSSNQENYLAWYQQKPGQSPKLLIYWASTRESGVPDRFTGSGSGTDFTLTISSVKAEDLAVYYCQQYYSYPRTFGGGTKLEIK
notes: mouse IgG2a
Kd [6]: 3 nM
Kd [7]: 28 nM
% live cells, Fab-saporin killing, 250 pM antibody [8]: 15.5%
% live cells, Fab-saporin killing, 250 pM antibody [9]: 108%
% inhibition of ligand receptor interaction [10]: 99%

B3: SC113.57 (antibody, V domains shown)
VH: QVQLKQSGPGLVPPSQSLSISCTVSGFSLTTYGVHWVRQSPGKGLEWLGVIWSGGTTDDNAAFISRVSITKDNSKSQVFFKMNSLQADDTAIYYCAKNSYYGNLHYYTMDYWGQGTSVTVSS
VL: not shown
notes: Murine hybridoma antibody with kappa light chain; also called SC113.57 capture antibody
Kd [6]: 5 nM
Kd [7]: 4 nM
% live cells, Fab-saporin killing, 250 pM antibody [8]: 11.6%
% live cells, Fab-saporin killing, 250 pM antibody [9]: 9.3%
% inhibition of ligand receptor interaction [5]: -35%

B4: SC113.219 (antibody, V domains shown)
VH: QVQLKQSGAELVRPGASVKLSCRASGYTFTDFYINWVKQRPGQGLEWIARIYPGSGNTHYNENFKGKATLTAEKSSSTAYMQLSSLTSEDSAVYFCAREVWDAMDHWGQGTSVTVSS
VL: SIVMTQSPKSMSISVGERVTLSCKASENVGTYVSWYQQKPEQSPKLLIYGASNRYTGVPDRFTGSGSSAEFTLTISSVQAEDLADYYCGQSSSFPIFTFGTGAKLEIK
% inhibition of ligand receptor interaction [5]: -37%

B5: SC113.153 (antibody, V domains shown)
VH: QVQLKQSGPGLVQPSQSLSITCTVSGFSLTSYGVHWVRQSPGKGLEWLGVIWSGGSTDDNAAFISRLSISKDNSKSQVFFKMNSLQADDTAIYYCARNYYYDGRYYAMDYWGQGTSVTVSS
VL: DIVLTQSPASLAVSLGQRATISCRASESVEYYGTSLMQWYQQKPGQPPKLLIYVASNVESGVPVRFSGSGSGTDFSLNIHPVEEDDIAMYFCQQSRKVPWTFGGGTKLEIK
notes: Murine hybridoma antibody
% inhibition of ligand receptor interaction [5]: -84%

B6: SC113.148 (antibody, V domains shown)
VH: QVQLKQSGPGPVQPSQSLSITCTVSGFSLTSYGVHWVRQSPGKGLEWLGVIWSGGSTDDNAAFISRMSITKDNSKSQVFLKMNSLQADDTAKYYCARNYYYEGRYYVMDYWGQGTSVIVSS
VL: DIVLTQSPVSLAVSLGQRATISCRASESVEYYGTSLMQWYQQKPGQPPKLLIYAASNVESGVPARFSGSGSGTDFSLNIHPVEEDDIAMYFCQQSRKVPWTFGGGTKLEIK
% inhibition of ligand receptor interaction [5]: -63%

B7: SC113.61 (antibody, V domains shown)
VH: EVQLVESGGDLVKPGGSLKLSCAASGFTFSNYGMSWVRQTPDKRLEWVATISNGGISTYYPDSVKGRFTISRDNAKNTLYLQMNSLKSEDTAMYYCVRPGRGYFDYWGQGTTLTVSS
VL: DIVMTQAAPSVPVTPGESVSISCRSNKSLLHSDGNTYLYWFLQRPGQSPQLLIYRMSNLASGVPDRFSGSGSGTAFTLRISRVEAEDVGVYYCMQHLEYPWTFGGGTKLEIK
modifications: MSD SULFO-TAG NHS Ester label on amines (sites not given)
notes: Murine hybridoma antibody, sulfo-tagged for use as detection antibody; The label may sit on either chain; also called SC113.61 detection antibody
Kd [6]: 6 nM
Kd [7]: 11 nM
% live cells, Fab-saporin killing, 250 pM antibody [8]: 23%
% live cells, Fab-saporin killing, 250 pM antibody [9]: 29%
% inhibition of ligand receptor interaction [10]: 48%

B8: SC113.70 (antibody, mouse IgG2b, V domains shown)
VH: DVQLQESGPDLVKPSQSLSLTCTVTGYSITSGYTWHWIRQFPGNKLEWMGYIIYSGGTNYNPSLKSRISITRDTSKNQFFLQLNSVTPEDTATYYCASLLRPLDYWGQGTTLTVSS
VL: DIVMTQAAPSVPVTPGESVSISCRSSKSLLHSNGDTFLYWFLQRPGQSPQLLIYRMSNLASGVPDRFSGSGSGTAFTLRISRVEAEDVGVYYCMQHLEYPFTFGAGTKLELK
notes: mouse IgG2b
Kd [6]: 11 nM
Kd [7]: 81 nM
% live cells, Fab-saporin killing, 250 pM antibody [8]: 95.1%
% live cells, Fab-saporin killing, 250 pM antibody [9]: 101%
% inhibition of ligand receptor interaction [5]: 46%

B9: SC113.46 (antibody, V domains shown)
VH: QIQLVQSGPELKKPGETVKISCKASGYSFTNYGMNWVKQTPRKGLKWVGWINTYTGETTYADDFKGRFAFSLETSASTAYLQINNLKNEDMATYFCARIYGYGWFAYWGQGTLVTVSA
VL: DIQMTQSPSSLSASLGERVSLTCRASQEISGYLSWLQQKPDGTIKRLIYAASTLDSGAPKRFSGSRSGSDYSLIISSLESEDFADYYCLQYSSYPYTFGGGTKLEIK
notes: mouse antibody, isotype N/A
Kd [1]: 4 nM
Kd [2]: 16 nM
% live cells, Fab-saporin killing, 250 pM antibody [3]: 28.3%
% live cells, Fab-saporin killing, 250 pM antibody [4]: 31.3%

B10: SC113.133 (antibody, V domains shown)
VH: QVQLQQSGAELVRPGSSVKISCKASGYAFSSSWINWVKQRPGQGLEWIGQIYPGDGDTNYNGKFKGKATLTADKSSNTAYLQLNSLTSEDSAVYFCARTPIFAYWGQGTLVTVSA
VL: DIQMTQSPSSLSASLGERVSLTCRASQEISGYLTWLQQKPDGTIKRLIYAASILDSGVPKRFSGSRSGSDYSLTISSLESEDFADYYCLQYASYPWTFGGGTKLEIK
% inhibition of ligand receptor interaction [10]: 66%

B11: SC113.35 (antibody, mouse IgG2b, V domains shown)
VH: DVQLQESGPDLVKPSQSLSLTCTVTGYSITSGYGWHWIRQFPGNKLEWMGYIDYSGNNNYNPSLKSRISITRDTSKNQLFLQLNSVTAEDTATYFCARIYYDAMDYWGQGTSVTVSS
VL: DIVMTQSHKFMSTSVGERVSITCKASQDVGGAVAWYQQKPGQSPKLLIYWASTRHTGVPDRFTGSGSGTDFTLTISNVQSEDLADYFCQQYSSYPLTFGAGTKLDLK
notes: mouse IgG2b
Kd [1]: 4 nM
Kd [2]: 10 nM
% live cells, Fab-saporin killing, 250 pM antibody [3]: 28.5%
% live cells, Fab-saporin killing, 250 pM antibody [4]: 69.6%
% inhibition of ligand receptor interaction [10]: 73%

B12: SC113.121 (antibody, V domains shown)
VH: EVQLQQSGAELVKPGASVNLSCTASGFNIKDYYMHWMKQRPEQGLEWIGRIDPENGETRYAPKFQDKATITADTSSNTAYLQLRSLTSEDTAIYYCGRLDFYFDFWGQGTTLTVSS
VL: QIVLSQSPAILSASPGEKVTMTCRASSSVSYMHWYQQKPGSSPKPWIYATSNLASGVPARFSGSGSGTSYSLTISRVEAEDAATYYCQQWSSNPPTFGSGTKLEIK
% inhibition of ligand receptor interaction [10]: 98%

B13: SC113.150 (antibody, V domains shown)
VH: EVQLQQSGAELVKPGASVKLSCTASGFNIKDYYLHWMKQRPEQGLEWIGRIDPENGETRYGPKFQGKATITADASSNTAYLQLRSLTSEDTAIYYCGRLDFYFDYWGQGTTLTVSS
VL: QIVLSQSPAILSASPGERVTMTCRASSSVNYIHWYQQKPGSSPKPWIYATSNLASGVPARFSGSGSGTSYSLTISRMEAEDAATYYCQQWSSNPPTFGSGTKLAIK
% inhibition of ligand receptor interaction [10]: 98%

B14: SC113.167 (antibody, V domains shown)
VH: EVQLQQSGAELVKPGASVKLSCTASGFNIKDYYMHWVKQRPEQGLYWIGRIDPEAGETRYAPNFQGKATITADTSSNTAYLQLRSLTSEDTAIYYCARLDFYFDSWGQGTTLTVSS
VL: QIVLSQSPAILSASPGEKVTMTCRASSSVSYMHWYQQKPGSSPKPWIYATSNLASGVPGRFSGSGSGTSYSLTISRVEAEDTATYYCQQWFTNPPTFGSGTKLEIK
% inhibition of ligand receptor interaction [10]: 89%

B15: huSC113.57 (antibody, V domains shown)
VH: QVTLKESGPVLVKPTETLTLTCTVSGFSLSTYGVHWIRQPPGKALEWLAVIWSGGTTDDNAAFISRVTISKDNSKSQVVLTMTNMDPVDTATYYCARNSYYGNLHYYTMDYWGQGTTVTVSS
VL: EIVLTQSPATLSLSPGERATLSCRASESVDSYGISFLNWYQQKPGQAPRLLIYAASNQGSGIPARFSGSGSGTDFTLTISSLEPEDFAVYYCQQSKEVPWTFGGGTKVEIK
notes: also called hSC113.57 (humanized SC113.57)
% inhibition of ligand receptor interaction [5]: -38%

B16: SC113.201 (antibody, V domains shown)
VH: QVQLKQSGPSLVQPSQSLSITCTVSGFSLTNYGVHWVRQSPGKGLEWLGVIWRGGGTDSNAAFMSRLTITKDNSKSQVFFKMSSLQADDTAIYYCAKNTRYDARGYYAMDYWGQGTSVTVSS
VL: not shown
% inhibition of ligand receptor interaction [5]: -66%
